Data reported in patent US20250101446A1, “METHOD FOR GENETIC TRANSFORMATION OF PLANT ORGANELLE GENOME AND USES THEREOF” (Solar Grants Biotechnology Inc., priority 2022, published 2025).

Columns and labels:
[1] = tested on: human NSCLC cell line NCI-H1792; assay: Attenuation of P1-induced IL-6 secretion in NCI-H1792 cells by pre-treatment with plant-produced cytokines (ELISA); assay type: cell-based; details: H1792 cells; pre-incubated 3 h, 1.0 ng/ml; P1 24 h
[2] = biological target: the molecule itself; assay: self-association (dimers and multimers) seen on SDS-PAGE and western blot
Method: Western blots membranes were visualized using the enhanced chemiluminescence (ECL) detection kit (GE Healthcare, Cat. No. RPN2232) and imaged with the DNR Bio-Imaging System MicroChemi (RANCOM A/S, Birkerød, Denmark). Densitometry was performed using the TotalLab TL 100 software (Nonlinear Dynamics, Durham, NC).

PHA-stimulated PBMCs = assay: Cytokine secretion from PHA-stimulated PBMCs treated with plantakines (multiplex Luminex); assay type: cell-based, human
Method: The bioactivity of our plantakines IL-37b and IL-38 was assessed by monitoring the secretion of 11 cytokines, generally regarded as inflammatory markers, from PBMCs stimulated with an IA. Freshly isolated human PBMCs were subjected to various treatments-combinations of the IAs with the plantakines at different concentrations. Two different model IAs were used, either the bacterial lipopolysaccharides (LPS) or a lectin from Phaseolus vulgaris (phytohaemagglutinin, PHA); each of the IAs was applied onto cells separately, each IA was applied at two concentrations: LPS at 150 and 300 μg/mL; PHA at 5 and 10 μg/mL. Each IA at each concentration was applied in combination with one of the two plantakines, each of them at three different concentrations: 1, 10 and 100 ng/ml of the monomeric forms present in the purified extracts. Also included were treatments comprised of either IA at their lower concentrations, in combination with both plantakines at 10 ng/ml concentration in order to assess possible synergistic effects. Cells with only IAs applied represented the reference (positive controls for each concentration), cells without any treatment represented the basal level (negative control). The levels of eleven different pro-inflammatory cytokines secreted into the medium from the PBMCs-GM-SCF, IFNγ. TNFα, IL-1α, IL-1β, IL-6, IL-8, IL-22, IL12, IL-17 and IL-10 were compared between the treatments and the controls. We applied Generalized Estimating Equation (GEE) model for the statistical data analysis. This statistical approach allows for nested observations and was used to test the effects of the plantakines IL-37b and IL-38 and their dosage in the context of IA-stimulated PBMCs inflammatory responses.
After isolation, the PBMCs from each donor separately were counted, plated in equal numbers per well and stimulated for 24 h with the applied treatments. Control wells on the plate contained media only (as basal level controls), and LPS and PHA (as positive controls at their corresponding concentrations). After the 24 h treatments stimulation the PBMCs' culture supernatants were used in the multiplex Luminex platform-assisted analysis of the concentrations of the 11 secreted pro-inflammatory cytokines.
The whole blood from 5 random human donors was collected in ACD Vacutainer tubes and immediately processed for isolation of PBMCs by gradient density centrifugation using Lympholyte. […] 5% CO2 and >80% humidity. PBMCs were treated with one of two IAs at 2 concentrations each (LPS at 150 and 300 μg/mL; PHA at 5 and 10 μg/mL) in combination with two test items (plant-produced IL-37b or IL-38) at three concentrations each (1, 10 and 100 ng/ml), based on the monomeric form amounts estimated with densitometry (ImageJ). Each treatment was tested in triplicates. Control wells contained media only (negative control, basal level of detection) and the examined IAs at both tested concentrations as the positive controls. The PBMCs were incubated for 24 hours after the stimulation for analysis of the levels of the secreted cytokines that were determined in the culture supernatant using a multiplex immunoassay (MAGPix®, Luminex), analytes were selected from the Milliplex panel HCYTOMAG-60K, sensitivity range of […]. All parameters of the Milliplex panel cytokines analysis using Luminex platform were validated (Millipore-Sigma).
Non-linear logarithm transformation was performed to address non-normality of distribution of Luminex-derived numeric data. Generalized Estimating Equation (GEE) method was used in the analysis of nested (correlated) structure of the data. Secreted inflammatory cytokine values were used as dependent variables and test item (plantakines) with dosage as independent predictors (factors). Separate analyses were conducted for each of the 11 monitored cytokines and each inflammatory agent/concentration combination. […]

B1: plant-produced recombinant human IL-38, mature form C2-W152 with C-terminal 7xHIS tag (ligand)
chain: CSLPMARYYIIKYADQKALYTRDGQLLVGDPVADNCCAEKICILPNRGLARTKVPIFLGIQGGSRCLACVETEEGPSLQLEDVNIEELYKGGEEATRFTFFQSSSGSAFRLEAAAWPGWFLCGPAEPQQPVQLTKESEPSARTKFYFEQSWHHHHHHH
notes: range 2-152; also called rhIL-38; plantakine IL-38
attenuation of IL-6 secretion triggered by P1 [1]: −60%
binding result [2]: binds
secreted GM-CSF level modulation vs positive control (PHA-stimulated PBMCs; 1 ng/mL, PHA 5 μg/mL): 18.0%, p = 0.403
secreted IFNγ level modulation vs positive control (PHA-stimulated PBMCs; 1 ng/mL, PHA 5 μg/mL): −35.6%, p = 0.137
secreted IL-1α level modulation vs positive control (PHA-stimulated PBMCs; 1 ng/mL, PHA 5 μg/mL): −9.5%, p = 0.480
secreted IL-1β level modulation vs positive control (PHA-stimulated PBMCs; 1 ng/mL, PHA 5 μg/mL): −2.0%, p = 0.888
secreted IL-6 level modulation vs positive control (PHA-stimulated PBMCs; 1 ng/mL, PHA 5 μg/mL): −5.8%, p = 0.798
secreted IL-8 level modulation vs positive control (PHA-stimulated PBMCs; 1 ng/mL, PHA 5 μg/mL): −11.3%, p = 0.736
secreted IL-10 level modulation vs positive control (PHA-stimulated PBMCs; 1 ng/mL, PHA 5 μg/mL): 17.4%, p = 0.244
secreted IL-12 level modulation vs positive control (PHA-stimulated PBMCs; 1 ng/mL, PHA 5 μg/mL): 63.3%, p = 0.020
secreted IL-17 level modulation vs positive control (PHA-stimulated PBMCs; 1 ng/mL, PHA 5 μg/mL): 4.1%, p = 0.807
secreted IL-22 level modulation vs positive control (PHA-stimulated PBMCs; 1 ng/mL, PHA 5 μg/mL): 8.1%, p = 0.631
secreted TNFα level modulation vs positive control (PHA-stimulated PBMCs; 1 ng/mL, PHA 5 μg/mL): 46.2%, p = 0.173
secreted GM-CSF level modulation vs positive control (PHA-stimulated PBMCs; 1 ng/mL, PHA 10 μg/mL): 1.5%, p = 0.881
secreted IFNγ level modulation vs positive control (PHA-stimulated PBMCs; 1 ng/mL, PHA 10 μg/mL): −36.9%, p = 0.164
secreted IL-1α level modulation vs positive control (PHA-stimulated PBMCs; 1 ng/mL, PHA 10 μg/mL): −5.8%, p = 0.469
secreted IL-1β level modulation vs positive control (PHA-stimulated PBMCs; 1 ng/mL, PHA 10 μg/mL): 0.0%, p = 1.000
secreted IL-6 level modulation vs positive control (PHA-stimulated PBMCs; 1 ng/mL, PHA 10 μg/mL): −2.0%, p = 0.898
secreted IL-8 level modulation vs positive control (PHA-stimulated PBMCs; 1 ng/mL, PHA 10 μg/mL): −5.8%, p = 0.823
secreted IL-10 level modulation vs positive control (PHA-stimulated PBMCs; 1 ng/mL, PHA 10 μg/mL): 22.1%, p = 0.033
secreted IL-12 level modulation vs positive control (PHA-stimulated PBMCs; 1 ng/mL, PHA 10 μg/mL): 22.2%, p = 0.476
secreted IL-17 level modulation vs positive control (PHA-stimulated PBMCs; 1 ng/mL, PHA 10 μg/mL): 22.1%, p = 0.166
secreted IL-22 level modulation vs positive control (PHA-stimulated PBMCs; 1 ng/mL, PHA 10 μg/mL): 86.8%, p < 0.001
secreted TNFα level modulation vs positive control (PHA-stimulated PBMCs; 1 ng/mL, PHA 10 μg/mL): 55.3%, p = 0.411
secreted IFNγ level modulation vs positive control (PHA-stimulated PBMCs; 10 ng/mL, PHA 5 μg/mL): −53.2%, p = 0.032
secreted IL-1α level modulation vs positive control (PHA-stimulated PBMCs; 10 ng/mL, PHA 5 μg/mL): 4.1%, p = 0.690
secreted IL-1β level modulation vs positive control (PHA-stimulated PBMCs; 10 ng/mL, PHA 5 μg/mL): 4.1%, p = 0.801
secreted IL-6 level modulation vs positive control (PHA-stimulated PBMCs; 10 ng/mL, PHA 5 μg/mL): 10.5%, p = 0.538
secreted IL-8 level modulation vs positive control (PHA-stimulated PBMCs; 10 ng/mL, PHA 5 μg/mL): 8.3%, p = 0.772
secreted IL-10 level modulation vs positive control (PHA-stimulated PBMCs; 10 ng/mL, PHA 5 μg/mL): 15.0%, p = 0.224
secreted IL-12 level modulation vs positive control (PHA-stimulated PBMCs; 10 ng/mL, PHA 5 μg/mL): 107.0%, p = 0.079
secreted IL-17 level modulation vs positive control (PHA-stimulated PBMCs; 10 ng/mL, PHA 5 μg/mL): 24.6%, p = 0.215
secreted IL-22 level modulation vs positive control (PHA-stimulated PBMCs; 10 ng/mL, PHA 5 μg/mL): 55.8%, p < 0.001
secreted TNFα level modulation vs positive control (PHA-stimulated PBMCs; 10 ng/mL, PHA 5 μg/mL): 49.2%, p = 0,123
secreted GM-CSF level modulation vs positive control (PHA-stimulated PBMCs; 10 ng/mL, PHA 10 μg/mL): 42.6%, p = 0.016
secreted IFNγ level modulation vs positive control (PHA-stimulated PBMCs; 10 ng/mL, PHA 10 μg/mL): −53.2%, p = 0.046
secreted IL-1α level modulation vs positive control (PHA-stimulated PBMCs; 10 ng/mL, PHA 10 μg/mL): −2.0%, p = 0.893
secreted IL-1β level modulation vs positive control (PHA-stimulated PBMCs; 10 ng/mL, PHA 10 μg/mL): 4.1%, p = 0.761
secreted IL-6 level modulation vs positive control (PHA-stimulated PBMCs; 10 ng/mL, PHA 10 μg/mL): 6.2%, p = 0.722
secreted IL-8 level modulation vs positive control (PHA-stimulated PBMCs; 10 ng/mL, PHA 10 μg/mL): −3.9%, p = 0.886
secreted IL-10 level modulation vs positive control (PHA-stimulated PBMCs; 10 ng/mL, PHA 10 μg/mL): 32.3%, p < 0.001
secreted IL-12 level modulation vs positive control (PHA-stimulated PBMCs; 10 ng/mL, PHA 10 μg/mL): 8.8%, p = 0.750
secreted IL-17 level modulation vs positive control (PHA-stimulated PBMCs; 10 ng/mL, PHA 10 μg/mL): 19.7%, p = 0.188
secreted IL-22 level modulation vs positive control (PHA-stimulated PBMCs; 10 ng/mL, PHA 10 μg/mL): 61.7%, p = 0.061
secreted TNFα level modulation vs positive control (PHA-stimulated PBMCs; 10 ng/mL, PHA 10 μg/mL): 166.4%, p = 0.105
secreted IFNγ level modulation vs positive control (PHA-stimulated PBMCs; 100 ng/mL, PHA 5 μg/mL): 6.2%, p = 0.856
secreted IL-1α level modulation vs positive control (PHA-stimulated PBMCs; 100 ng/mL, PHA 5 μg/mL): 46.2%, p = 0.015
secreted IL-1β level modulation vs positive control (PHA-stimulated PBMCs; 100 ng/mL, PHA 5 μg/mL): 43.3%, p = 0.019
secreted IL-6 level modulation vs positive control (PHA-stimulated PBMCs; 100 ng/mL, PHA 5 μg/mL): 15.0%, p = 0.432
secreted IL-8 level modulation vs positive control (PHA-stimulated PBMCs; 100 ng/mL, PHA 5 μg/mL): 10.5%, p = 0.731
secreted IL-10 level modulation vs positive control (PHA-stimulated PBMCs; 100 ng/mL, PHA 5 μg/mL): 15.0%, p = 0.275
secreted IL-12 level modulation vs positive control (PHA-stimulated PBMCs; 100 ng/mL, PHA 5 μg/mL): 123.0%, p < 0.001
secreted IL-17 level modulation vs positive control (PHA-stimulated PBMCs; 100 ng/mL, PHA 5 μg/mL): 29.7%, p = 0.107
secreted IL-22 level modulation vs positive control (PHA-stimulated PBMCs; 100 ng/mL, PHA 5 μg/mL): 15.3%, p = 0.347
secreted TNFα level modulation vs positive control (PHA-stimulated PBMCs; 100 ng/mL, PHA 5 μg/mL): 85.9%, p = 0.026
secreted IFNγ level modulation vs positive control (PHA-stimulated PBMCs; 100 ng/mL, PHA 10 μg/mL): 6.2%, p = 0.852
secreted IL-1α level modulation vs positive control (PHA-stimulated PBMCs; 100 ng/mL, PHA 10 μg/mL): 40.5%, p < 0.001
secreted IL-1β level modulation vs positive control (PHA-stimulated PBMCs; 100 ng/mL, PHA 10 μg/mL): 46.2%, p = 0.001
secreted IL-6 level modulation vs positive control (PHA-stimulated PBMCs; 100 ng/mL, PHA 10 μg/mL): 4.1%, p = 0.810
secreted IL-8 level modulation vs positive control (PHA-stimulated PBMCs; 100 ng/mL, PHA 10 μg/mL): −2.0%, p = 0.943
secreted IL-10 level modulation vs positive control (PHA-stimulated PBMCs; 100 ng/mL, PHA 10 μg/mL): 22.1%, p = 0.033
secreted IL-12 level modulation vs positive control (PHA-stimulated PBMCs; 100 ng/mL, PHA 10 μg/mL): 74.3%, p = 0.002
secreted IL-17 level modulation vs positive control (PHA-stimulated PBMCs; 100 ng/mL, PHA 10 μg/mL): 55.3%, p = 0.003
secreted IL-22 level modulation vs positive control (PHA-stimulated PBMCs; 100 ng/mL, PHA 10 μg/mL): 50.0%, p = 0.020
secreted TNFα level modulation vs positive control (PHA-stimulated PBMCs; 100 ng/mL, PHA 10 μg/mL): 252.5%, p = 0.017
Decreased secretion: number of treatments with statistically significant modulation (PHA-stimulated PBMCs; PHA 5 μg/mL): 1
Increased secretion: number of treatments with statistically significant modulation (PHA-stimulated PBMCs; PHA 5 μg/mL): 7
Decreased secretion: number of treatments with statistically significant modulation (PHA-stimulated PBMCs; PHA 10 μg/mL): 1
Increased secretion: number of treatments with statistically significant modulation (PHA-stimulated PBMCs; PHA 10 μg/mL): 12
